What was measured:
[1] = target: T1, human CLDN-18.2 (human, UniProt P56856-2 1-261); assay: cell-based or functional assay
[2] = target: T1, human CLDN-18.2; assay: flow cytometry on NUGC4-CLDN-18.2 cells, 4 C 30 min, fluorescent secondary antibody
Procedure: Finally, the fluorescence intensity was detected by BD CantoII flow cytometer. The stronger the fluorescent signal, the higher the affinity of the antibody to the target. The antibody dose-dependent binding curve was fitted by GraphPad (FIG. 1) and EC₅₀ was calculated (Table 3). The positive and negative controls were IMAB362 and anti-KLH hu-IgG1 antibody, respectively.

[3] = target: T1, human CLDN-18.2; assay: flow cytometry (FACS) on NUGC4-CLDN-18.2 cells, fluorescent secondary antibody, MFI
Text: Fluorescent signal was detected by FACS; the stronger the detected fluorescent signal, the higher the antibody affinity, that is, the higher the target binding activity. Antibody binding curves were fitted by GraphPad (FIGS. 4a, 4b and 4c), and the positive and negative controls were IMAB362 and anti-KLH hu-IgG1 antibody, respectively.

Row | EC50 of ADCC effect (Jurkat NFAT-Luc/FcγRIIIaR reporter cells) [1] [ng/mL] | EC50 of CDC effect (complement serum, PI staining, flow cytometry) [1] [ng/mL] | EC50 [2] [µg/mL] | EC50 of ADCC effect (Jurkat ADCC NFAT luciferase reporter cells) [1] [ng/mL] | EC50 (read off the curve) [3] [µg/mL] | Binder | EC50 of CDC effect (complement serum, PI staining, relative killing rate) [1] [ng/mL] | further results
1 | 56.1 | 461 | 4.02 | – | – | anti-CLDN-18.2 chimeric antibody Chi-JS012-2 (antibody, V domains shown, Fused to a human heavy chain constant region and a human kappa constant region cloned from human blood cells) VH: DVQLVESGGGLVQPGGSRKLSCAASGFTLNNFGMHWVRQAPEKGLEWVACISSGSGTIYYADTVKGRFTISRDNPKNTLFLQMTSLRSEDTAMYYCARAYYGNGFSFWGQGTLVTVSS VL: DIVMTQSPSSLTVTAGEKVTMSCKSSQSLLNSGNQKNYLTWYQQKPGQPPKLLIYWASTRESGVPDRFTGSGSGTDFTLTISSVQAEDLAIYYCQNVYSYPLTFGAGTKLEIK | – | –
2 | 43.6 | 316 | 3.22 | – | – | anti-CLDN-18.2 chimeric antibody Chi-JS012-9 (antibody, V domains shown, Human heavy chain constant region and human kappa constant region) VH: QIQLVQSGPELKKPGETVKISCKASGYTFTNYGMNWVKQAPGKGLKWMGWINTYTGESTYADDFKGRFAFSSETSARTAYLQINNLKNEDMATYFCATLGYGNSLAYWGQGTLVTVSS VL: DIVMTQYPSFLTVTTGEKVTMSCKSSQSLLNSGNQRNYLTWYQQKPGQPPKLLIYWASTRESGVPDRFAGSGSGTDFTLTISSVQAEDLAIYYCQNNYFYPFTFGSGTKLEVK | – | –
3 | 43.2 | 264 | 2.92 | – | – | anti-CLDN-18.2 chimeric antibody Chi-JS012-27 (antibody, V domains shown, Human heavy chain constant region and human kappa constant region) VH: EVKLVESGGGLVKPGGSLKLSCAASGFTFSSYGMSWVRQTPEKRLECVATISGGDSYTYYPDSVRGRFTISRDIAKNNLYLQMSSLRSEDTALYYCARSYNGNSLPYWGQGTLVTVSS VL: DIVMTQYPSFLTVTTGEKVTMSCKSSQSLLNSGNQRNYLTWYQQKPGQPPKLLIYWASTRESGVPDRFAGSGSGTDFTLTISSVQAEDLAIYYCQNNYFYPFTFGSGTKLEVK | – | –
4 | 49.5 | 358 | 3.19 | – | – | anti-CLDN-18.2 chimeric antibody Chi-JS012-10 (antibody, V domains shown, Human heavy chain constant region and human kappa constant region) VH: QIQLVQSGPELKKPGETVKISCKASGYTFTNYGMNWVKQAPGKGLKWMGWINTYTGESTYADDFKGRFAFSSETSARTAYLQINNLKNEDMATYFCATLGYGNSLAYWGQGTLVTVSS VL: DIVMTQSPSFLTVTAGEKVTMSCKSSQSLLNSGNQKNYLTWYQQKPGQPPKLLIYWASTRDSGVPDRFTGSGSGTDFTLTITSVQAEDLAVFYCQNAYFYPFTFGSGTKLEIK | – | –
5 | 63.1 | – | 2.37 | – | – | anti-CLDN-18.2 chimeric antibody Chi-JS012-21 (antibody, V domains shown, Human heavy chain constant region and human kappa constant region) VH: QIQLVQSGPELKKPGETVKISCKASGYTFTNYGMNWVKQAPGKGLKWMGWINTYTGESTYADDFKGRFAFSSETSARTAYLQINNLKNEGMATYFCARSYNGNSLPYWGQGTLVTVSS VL: DIVMTQYPSFLTVTTGEKVTMSCKSSQSLLNSGNQRNYLTWYQQKPGQPPKLLIYWASTRESGVPDRFAGSGSGTDFTLTISSVQAEDLAIYYCQNNYFYPFTFGSGTKLEVK | – | –
6 | – | – | – | 22.5 | ~1 | humanized anti-CLDN-18.2 antibody JS012-Chi9-hu7-v2 (antibody, human IgG1, kappa, V domains shown) VH: QVQLVQSGSELKKPGESVKVSCKASGYTFTNYGMNWVRQAPGQGLEWMGWINTYTGESTYADGFTGRFVFSMDTSASTAYLQISSLKAEDMAMYFCATLGYGNSLAYWGQGTLVTVSS VL: DIVMTQSPDSLAVSLGERATINCKSSQSLLNSGNQRNYLTWYQQKPGQPPKLLIYWASTRESGVPDRFSGSGSGTDFTLTISSLQAEDVAVYYCQNNYFYPFTFGQGTKLEIKR | 134 | –
7 | – | – | – | 14.2 | – | humanized anti-CLDN-18.2 antibody JS012-Chi2-hu2-v3-2 (antibody, human IgG1, kappa, V domains shown) VH: EVQLVESGGGLVQPGGSLRLSCAASGFTLNNFGMHWVRQAPGKGLEWVSSISSGSGTIYYADSVKGRFTISRDNPKNSLYLQMNSLRAEDTAVYYCARAYYGNGFSFWGQGTLVTVSS VL: DIVMTQSPDSLAVSLGERATINCKSSQSLLNSGNQKNYLTWYQQKPGQPPKLLIYWASTRESGVPDRFSGSGSGTDFTLTISSLQAEDVAVYYCQNVYSYPLTFGQGTKLEIKR | 166 | EC50 [3]: 1.65 µg/mL
8 | – | – | – | 23.6 | ~1 | humanized anti-CLDN-18.2 antibody JS012-Chi9-hu7 (antibody, human IgG1, kappa, V domains shown) VH: QIQLVQSGSELKKPGESVKVSCKASGYTFTNYGMNWVRQAPGQGLEWMGWINTYTGESTYADGFTGRFVFSSDTSARTAYLQISSLKAEDTAVYFCATLGYGNSLAYWGQGTLVTVSS VL: DIVMTQSPDSLAVSLGERATINCKSSQSLLNSGNQRNYLTWYQQKPGQPPKLLIYWASTRESGVPDRFSGSGSGTDFTLTISSLQAEDVAVYYCQNNYFYPFTFGQGTKLEIKR | 86 | –
9 | – | – | – | 35.8 | ~1 | humanized anti-CLDN-18.2 antibody JS012-Chi27-hu3-v2 (antibody, human IgG1, V domains shown) VH: EVQLVESGGGLVKPGGSLRLSCAASGFTFSSYGMSWVRQAPGKGLEWVSTISGGDSYTYYPDSVRGRFTISRDNAKNSLYLQMNSLRAEDTAVYYCARSYNGNSLPYWGQGTLVTVSS VL: DIVMTQSPDSLAVSLGERATINCKSSQSLLNSGNQRNYLTWYQQKPGQPPKLLIYWASTRESGVPDRFSGSGSGTDFTLTISSLQAEDVAVYYCQNNYFYPFTFGQGTKLEIK | 169 | –
10 | – | – | – | 74.2 | ~5 | humanized anti-CLDN-18.2 antibody JS012-Chi27-hu6-v3-2 (antibody, human IgG1, V domains shown) VH: EVQLVESGGGLVKPGGSLRLSCAASGFTFSSYGMSWVRQAPGKGLESVSTISGGDSYTYYPDSVRGRFTISRDIAKNSLYLQMNSLRAEDTAVYYCARSYNGNSLPYWGQGTLVTVSS VL: DIVMTQSPDSLAVSLGERATINCKSSQSLLNSGNQRNYLTWYQQKPGQPPKLLIYWASTRESGVPDRFSGSGSGTDFTLTISSLQAEDVAVYYCQNNYFYPFTFGQGTKLEIK | 715 | –
11 | – | 354 | – | – | ~2 | IMAB362 (antibody, V domains shown) VH: QVQLQQPGAELVRPGASVKLSCKASGYTFTSYWINWVKQRPGQGLEWIGNIYPSDSYTNYNQKFKDKATLTVDKSSSTAYMQLSSPTSEDSAVYYCTRSWRGNSFDYWGQGTTLTVSS VL: DIVMTQSPSSLTVTAGEKVTMSCKSSQSLLNSGNQKNYLTWYQQKPGQPPKLLIYWASTRESGVPDRFTGSGSGTDFTLTISSVQAEDLAVYYCQNDYSYPFTFGSGTKLEIKR | – | EC50 of ADCC effect (Jurkat NFAT-Luc/FcγRIIIaR reporter cells), FIG. 2a [1]: 36 ng/mL; EC50 of ADCC effect (Jurkat NFAT-Luc/FcγRIIIaR reporter cells), FIG. 2b [1]: 34.4 ng/mL; EC50 [3]: 1.39 µg/mL

From patent publication US20240059771A1 (SHANGHAI JUNSHI BIOSCIENCES, published 2024)
